The values that follow come from patent US20200024360A1 (Janssen / Centocor, published 2020).

As a reminder, the EC50 is the concentration giving half of the maximal effect.

The target of assay [1] is T1, Cynomolgous monkey PSMA, full length (Macaca fascicularis, UniProt Q04609 1-750 (human entry)).
T1 construct: On transfected HEK293F cells; also called cyno PSMA; EHH56646.1
T1 chain: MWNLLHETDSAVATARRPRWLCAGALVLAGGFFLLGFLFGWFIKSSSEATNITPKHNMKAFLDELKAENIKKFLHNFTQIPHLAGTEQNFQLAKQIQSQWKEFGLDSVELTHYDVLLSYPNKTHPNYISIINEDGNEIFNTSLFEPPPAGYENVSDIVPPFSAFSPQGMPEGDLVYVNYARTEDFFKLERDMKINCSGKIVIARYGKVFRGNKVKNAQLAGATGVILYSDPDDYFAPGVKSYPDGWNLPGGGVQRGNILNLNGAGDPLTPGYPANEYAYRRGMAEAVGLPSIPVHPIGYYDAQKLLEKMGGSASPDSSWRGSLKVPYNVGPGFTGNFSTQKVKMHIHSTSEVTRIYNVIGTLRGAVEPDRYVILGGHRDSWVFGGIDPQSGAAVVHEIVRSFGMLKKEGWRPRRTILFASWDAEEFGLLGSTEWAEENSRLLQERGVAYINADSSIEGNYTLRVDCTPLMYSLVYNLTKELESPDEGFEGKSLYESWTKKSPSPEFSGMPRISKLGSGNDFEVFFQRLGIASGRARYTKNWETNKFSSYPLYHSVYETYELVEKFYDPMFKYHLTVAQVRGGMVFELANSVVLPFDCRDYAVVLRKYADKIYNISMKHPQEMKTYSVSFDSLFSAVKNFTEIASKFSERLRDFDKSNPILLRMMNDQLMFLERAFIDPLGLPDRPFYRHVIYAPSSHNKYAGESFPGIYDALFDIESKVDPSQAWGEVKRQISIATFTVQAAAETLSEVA
As to the kind of experiment: FACS, whole cell binding, cyno PSMA HEK. The method, then:
(§1) PSMA×CD3 bispecific antibodies were tested for binding to PSMA positive cell lines LNCAP, human PSMA-HEK, Chimpanzee-PSMA-HEK and Cynomolgous monkey PSMA-HEK. To assess the binding capabilities of the PSMA bispecific antibodies, the cell-binding assay was utilized (described previously). Briefly, PSMA expressing tumor cells are bound by bispecific antibodies at known concentrations and the bound antibody is detected by an anti-human kappa light chain PE conjugated detection reagent (Invitrogen). The Mean Fluorescents Intensity (MFI) is the measure of bound bispecific antibody. The MFI is converted to a relative EC₅₀. EC₅₀ is a commonly used dose-response curve, where the half maximal effective concentration or the EC₅₀ point is defined as the inflection point of the curve. EC₅₀ s were determined by measuring cell bound bispecific and known concentrations. […] The dose response curves were then diluted down to that of background or no bispecific binding. The inflection point of this curve reflects the EC₅₀ point. The calculated EC₅₀ is determined by taking the ug/ml amount of bispecific antibody at the EC₅₀ point and converting it to a molarity value based on the MW of the bispecific antibody. Bispecific antibodies were normalized for protein concentration and then incubated with the same number of cells expressing either human or cyno PSMA. The MFI at each concentration was collected by flow cytometry and plotted as a function of concentration. Data was transformed via log 10 and then plotted. Nonlinear regression of binding curves was done to determine EC₅₀ s. These relative values were used for ranking PSMA binding to target cells.

In assay [2] the target is T2, human PSMA (prostate specific membrane antigen), full length (human, UniProt Q04609 1-750).
T2 construct: On LNCaP or C4-2B cells (endogenous) or transduced HEK293F cells; also called FOLH1_HUMAN; hPSMA
T2 sequence (Q04609 whole entry): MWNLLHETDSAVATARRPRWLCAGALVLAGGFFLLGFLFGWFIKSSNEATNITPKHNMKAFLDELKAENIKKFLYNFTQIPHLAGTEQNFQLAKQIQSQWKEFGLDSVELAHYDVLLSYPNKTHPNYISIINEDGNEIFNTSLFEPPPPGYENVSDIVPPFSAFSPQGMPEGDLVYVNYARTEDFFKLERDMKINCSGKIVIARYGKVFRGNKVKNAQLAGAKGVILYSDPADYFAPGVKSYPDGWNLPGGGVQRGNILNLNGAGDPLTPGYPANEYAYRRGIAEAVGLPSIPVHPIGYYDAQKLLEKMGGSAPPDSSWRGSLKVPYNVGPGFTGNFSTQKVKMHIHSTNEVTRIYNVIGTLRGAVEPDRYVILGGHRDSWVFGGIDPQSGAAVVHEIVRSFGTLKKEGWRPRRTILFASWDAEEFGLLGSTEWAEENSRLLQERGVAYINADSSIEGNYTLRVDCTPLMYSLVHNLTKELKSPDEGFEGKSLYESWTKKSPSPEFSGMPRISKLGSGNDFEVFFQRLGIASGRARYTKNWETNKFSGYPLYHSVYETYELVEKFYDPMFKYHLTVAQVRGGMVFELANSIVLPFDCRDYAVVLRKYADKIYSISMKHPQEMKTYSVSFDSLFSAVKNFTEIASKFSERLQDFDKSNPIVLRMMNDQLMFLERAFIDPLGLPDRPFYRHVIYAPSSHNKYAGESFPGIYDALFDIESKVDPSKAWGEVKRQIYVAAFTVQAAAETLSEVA
As to the kind of experiment: FACS, whole cell binding, LNCaP. The method, then:
as §1
In general terms: Flow cytometry measures light scatter and fluorescence of single cells or particles in a stream.

Assay [3] has as its target T3, chimpanzee PSMA, full length (Pan troglodytes, UniProt Q04609 1-750 (human entry)).
T3 construct: On transfected HEK293F cells; also called chimp PSMA; H2Q3K5_PANTR
T3 chain: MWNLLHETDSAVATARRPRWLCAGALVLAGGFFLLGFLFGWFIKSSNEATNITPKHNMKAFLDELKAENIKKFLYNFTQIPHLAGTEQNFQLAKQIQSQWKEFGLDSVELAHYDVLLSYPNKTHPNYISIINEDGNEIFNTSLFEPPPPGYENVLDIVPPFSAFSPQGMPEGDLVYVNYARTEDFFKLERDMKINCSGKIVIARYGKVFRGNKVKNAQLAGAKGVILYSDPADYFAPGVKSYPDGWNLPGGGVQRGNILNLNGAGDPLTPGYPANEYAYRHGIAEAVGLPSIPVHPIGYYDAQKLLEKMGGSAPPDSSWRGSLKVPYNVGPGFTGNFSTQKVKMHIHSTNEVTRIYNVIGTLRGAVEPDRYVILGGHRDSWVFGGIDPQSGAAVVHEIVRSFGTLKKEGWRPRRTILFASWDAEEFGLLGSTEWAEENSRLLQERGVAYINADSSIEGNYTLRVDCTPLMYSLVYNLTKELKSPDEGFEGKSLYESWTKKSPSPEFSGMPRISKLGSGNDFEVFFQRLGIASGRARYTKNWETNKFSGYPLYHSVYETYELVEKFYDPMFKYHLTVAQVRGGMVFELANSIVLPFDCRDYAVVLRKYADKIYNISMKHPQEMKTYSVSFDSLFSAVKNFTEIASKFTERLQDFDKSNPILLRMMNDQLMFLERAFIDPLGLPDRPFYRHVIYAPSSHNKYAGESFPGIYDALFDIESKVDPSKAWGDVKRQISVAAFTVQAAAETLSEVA
Put plainly: FACS, whole cell binding, chimp PSMA HEK; calculated EC50. The method, then:
as §1

B1: PS3B27 (bispecific antibody, human IgG4 S228P, kappa, lambda, F234A L235A)
heavy 1: not shown
light 1: not shown
heavy 2: EVQLVESGGGLVQPGGSLRLSCAASGFTFNTYAMNWVRQAPGKGLEWVARIRSKYNNYATYYAASVKGRFTISRDDSKNSLYLQMNSLKTEDTAVYYCARHGNFGNSYVSWFAYWGQGTLVTVSSASTKGPSVFPLAPCSRSTSESTAALGCLVKDYFPEPVTVSWNSGALTSGVHTFPAVLQSSGLYSLSSVVTVPSSSLGTKTYTCNVDHKPSNTKVDKRVESKYGPPCPPCPAPEAAGGPSVFLFPPKPKDTLMISRTPEVTCVVVDVSQEDPEVQFNWYVDGVEVHNAKTKPREEQFNSTYRVVSVLTVLHQDWLNGKEYKCKVSNKGLPSSIEKTISKAKGQPREPQVYTLPPSQEEMTKNQVSLTCLVKGFYPSDIAVEWESNGQPENNYKTTPPVLDSDGSFLLYSKLTVDKSRWQEGNVFSCSVMHEALHNHYTQKSLSLSLGK
light 2: QTVVTQEPSLTVSPGGTVTLTCRSSTGAVTTSNYANWVQQKPGQAPRGLIGGTNKRAPGTPARFSGSLLGGKAALTLSGVQPEDEAEYYCALWYSNLWVFGGGTKLTVLGQPKAAPSVTLFPPSSEELQANKATLVCLISDFYPGAVTVAWKADSSPVKAGVETTTPSKQSNNKYAASSYLSLTPEQWKSHRSYSCQVTHEGSTVEKTVAPTECS
notes: IgG4 PAA; PSMA arm chains first, then CD3 arm (F405L, R409K); also called PSMB127 x CD3B219; PS2B27
Take B1: the 50% effective concentration (EC50) in assay [1] was 1.4 µg/mL; in assay [2], 2.07 µg/mL; in assay [3], 22.8 nM.

B2: PS3B22 (bispecific antibody, human IgG4 S228P, kappa, lambda, F234A L235A)
heavy 1: not shown
light 1: DIQMTQSPSSLSASVGDRVTITCRASQSIDRWLNWYQQKPGKAPKLLIYAASSLQSGVPSRFSGSGSGTDFTLTISSLQPEDFATYYCQQSPRYPLTFGQGTKVEIKRTVAAPSVFIFPPSDEQLKSGTASVVCLLNNFYPREAKVQWKVDNALQSGNSQESVTEQDSKDSTYSLSSTLTLSKADYEKHKVYACEVTHQGLSSPVTKSFNRGEC
heavy 2: B1 heavy 2
light 2: B1 light 2
notes: IgG4 PAA; PSMA arm chains first, then CD3 arm (F405L, R409K); also called PSMB122 x CD3B219; PSB22
With B2, the concentration for a half-maximal effect (EC50) in assay [1] was 1.14 µg/mL; in assay [2] it was 2.6 µg/mL; in assay [3], 21.2 nM.

B3: PS3B19 (bispecific antibody, human IgG4 S228P, kappa, lambda, F234A L235A)
heavy 1: not shown
light 1: not shown
heavy 2: B1 heavy 2
light 2: B1 light 2
notes: IgG4 PAA; PSMA arm chains first, then CD3 arm (F405L, R409K); also called PSMB119 x CD3B219
For the molecule B3, the EC50 is 1.76 µg/mL in assay [1] and 35.9 nM in assay [3]. For the same molecule, the binding result in assay [2] is “binds”.

B4: PS3B24 (bispecific antibody, human IgG4 S228P, kappa, lambda, F234A L235A)
heavy 1: not shown
light 1: not shown
heavy 2: B1 heavy 2
light 2: B1 light 2
notes: IgG4 PAA; PSMA arm chains first, then CD3 arm (F405L, R409K); also called PSMB124 x CD3B219
On to B4, for which the concentration giving a half-maximal response (EC50) is 18.2 µg/mL in assay [1] and 7.75 nM in assay [3]. Moreover, in assay [2], the binding result was “binds”.

B5: PS3B28 (bispecific antibody, human IgG4 S228P, kappa, lambda, F234A L235A)
heavy 1: not shown
light 1: not shown
heavy 2: B1 heavy 2
light 2: B1 light 2
notes: IgG4 PAA; PSMA arm chains first, then CD3 arm (F405L, R409K); also called PSMB128 x CD3B219
Regarding B5, the EC50 in assay [1] is 0.688 µg/mL; in assay [2] it was 1.16 µg/mL; in assay [3], 7.08 nM.

B6: PS3B30 (bispecific antibody, human IgG4 S228P, kappa, lambda, F234A L235A)
heavy 1: not shown
light 1: not shown
heavy 2: B1 heavy 2
light 2: B1 light 2
notes: IgG4 PAA; PSMA arm chains first, then CD3 arm (F405L, R409K); also called PSMB130 x CD3B219
For B6, the 50% effective concentration (EC50) in assay [1] is 5.37 µg/mL; in assay [2], 1.2 µg/mL; in assay [3], 23.2 nM.

B7: PS3B23 (bispecific antibody, human IgG4 S228P, kappa, lambda, F234A L235A)
heavy 1: not shown
light 1: not shown
heavy 2: B1 heavy 2
light 2: B1 light 2
notes: IgG4 PAA; PSMA arm chains first, then CD3 arm (F405L, R409K); also called PSMB123 x CD3B219
In the case of B7, the EC50 in assay [1] is 3.74 µg/mL; in assay [3] it was 6.18 nM.

B8: PS3B20 (bispecific antibody, human IgG4 S228P, kappa, lambda, F234A L235A)
heavy 1: not shown
light 1: not shown
heavy 2: B1 heavy 2
light 2: B1 light 2
notes: IgG4 PAA; PSMA arm chains first, then CD3 arm (F405L, R409K); also called PSMB120 x CD3B219
Regarding B8, the EC50 in assay [1] is 2 µg/mL; in assay [2], 123 µg/mL; in assay [3], 23.4 nM.
